The Kd is the free concentration of one partner at which half of the binding sites on the other are occupied at equilibrium, for simple one-to-one binding.

Drawing on article PMC12375108, this text covers Kd for 1 molecule.

The target of the test is GST-tagged T. marianensis hinT H100N (Thermaerobacter marianensis). The test can be described thus: BLI; GST-hinT (90 nM) immobilised on anti-GST biosensors; sucA-AMP 500 to 7.81 nM, unmodified sucA at 500 nM; 10 mM Tris pH 8, 150 mM NaCl, 0.1% Triton X-100; KD from steady-state responses, one site. For orientation: In BLI a coated tip is dipped into the sample, and binding shifts an interference pattern.

B1: AMPylated sucA (enzyme)
chain: MQNSALKAWLDSSYLSGANQSWIEQLYEDFLTDPDSVDANWRSTFQQLPGTGVKPDQFHSQTREYFRRLAKDASRYSSTISDPDTNVKQVKVLQLINAYRFRGHQHANLDPLGLWQQDKVADLDPSFHDLTEADFQETFNVGSFASGKETMKLGELLEALKQTYCGPIGAEYMHITSTEEKRWIQQRIESGRATFNSEEKKRFLSELTAAEGLERYLGAKFPGAKRFSLEGGDALIPMLKEMIRHAGNSGTREVVLGMAHRGRLNVLVNVLGKKPQDLFDEFAGKHKEHLGTGDVKYHMGFSSDFQTDGGLVHLALAFNPSHLEIVSPVVIGSVRARLDRLDEPSSNKVLPITIHGDAAVTGQGVVQETLNMSKARGYEVGGTVRIVINNQVGFTTSNPLDARSTPYCTDIGKMVQAPIFHVNADDPEAVAFVTRLALDFRNTFKRDVFIDLVCYRRHGHNEADEPSATQPLMYQKIKKHPTPRKIYADKLEQEKVATLEDATEMVNLYRDALDAGDCVVAEWRPMNMHSFTWSPYLNHEWDEEYPNKVEMKRLQELAKRISTVPEAVEMQSRVAKIYGDRQAMAAGEKLFDWGGAENLAYATLVDEGIPVRLSGEDSGRGTFFHRHAVIHNQSNGSTYTPLQHIHNGQGAFRVWDSVLSEEAVLAFEYGYATAEPRTLTIWEAQFGDFANGAQVVIDQFISSGEQKWGRMCGLVMLLPHGYEGQGPEHSSARLERYLQLCAEQNMQVCVPSTPAQVYHMLRRQALRGMRRPLVVMSPKSLLRHPLAVSSLEELANGTFLPAIGEIDELDPKGVKRVVMCSGKVYYDLLEQRRKNNQHDVAIVRIEQLYPFPHKAMQEVLQQFAHVKDFVWCQEEPLNQGAWYCSQHHFREVIPFGASLRYAGRPASASPAVGYMSVHQKQQQDLVNDALNVE
modifications: multiple AMPylation sites, residues not given
In the case of B1, the Kd was determined as 9 nM.
